Measured values published in US5776725, “Recombinant production of glucagon receptors” (ZymoGenetics, Inc., dated 1998).

Legend:
[1] = target: human glucagon receptor encoded by plasmid pLJ6' (human); assay: in situ 125I-glucagon binding with emulsion autoradiography on pLJ6'-transfected COS 7 cells
[2] = target: glucagon receptors of rat liver membrane preparations (rat) (UniProt P30082); assay: Scatchard analysis of 125I-glucagon binding in competition with unlabeled glucagon, rat liver membranes
[3] = target: rat glucagon receptor encoded by plasmid pLJ4 (rat)
[4] = target: rat glucagon receptor encoded by plasmid pLJ4 (rat); remark: listed apart in the source
[5] = target: rat glucagon receptor encoded by plasmid pLJ4 (rat); assay: Scatchard analysis of 125I-glucagon binding in competition with unlabeled glucagon, membranes of pLJ4 BHK transfectants
[6] = target: rat glucagon receptor encoded by plasmid pLJ4 (rat); remark: listed apart in the source
[7] = target: rat glucagon receptor encoded by plasmid pLJ4 (rat); remark: listed apart in the source
[8] = target: T1, bovine parathyroid hormone (PTH) (Sigma) (bovine, UniProt P01268); assay: competition with 125I-glucagon, membranes of pLJ4 BHK transfectants
T1 sequence (peptide): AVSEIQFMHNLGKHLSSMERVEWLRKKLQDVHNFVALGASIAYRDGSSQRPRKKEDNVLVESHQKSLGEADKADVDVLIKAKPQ
Protocol: The binding reaction was initiated by the addition of 20 µl of a membrane preparation to the reaction tubes. The reactions were incubated for 30 minutes at 30° C. The membranes were pelleted by centrifugation in a microfuge at high speed for 10 minutes at 4° C. The supernatants from each sample were aspirated, and the pellets were counted.

125I-glucagon (Amersham receptor grade) (ligand)
percent of transfected cells that bound glucagon [1]: > 50%

glucagon (ligand)
Kd [2]: 49 nM | ED50 of cAMP induction [3]: 0.25 nM | induction of cAMP levels (scintillation proximity radioimmunoassay) [3]: 140 fold | cAMP levels (Amersham SPA kit) [4]: 5 fold | Kd [5]: 50 nM | intracellular calcium concentration (fura-2 photoimaging) [6]: 400 nM | fold induction of luciferase (CRE-luciferase) [7]: 6 to 10 fold

B1: rat glucagon receptor encoded by plasmid pLJ4 (receptor)
chain: AQVMDFLFEKWKLYSDQCHHNLSLLPPPTELVCNRTFDKYSCWPDTPPNTTANISCPWYLPWYHKVQHRLVFKRCGPDGQWVRGPRGQSWRDASQCQMDDDEIEVQKGVAKMYSSYQVMYTVGYSLSLGALLLALVILLGLRKLHCTRNYIHGNLFASFVLKAGSVLVIDWLLKTRYSQKIGDDLSVSVWLSDGAVAGCRVATVIMQYGIIANYCWLLVEGVYLYSLLSITTFSEKSFFSLYLCIGWGSPLLFVIPWVVVKCLFENVQCWTSNDNMGFWWILRIPVLLAILINFFIFVRIIHLLVAKLRAHQMHYADYKFRLARSTLTLIPLLGVHEVVFAFVTDEHAQGTLRSTKLFFDLFFSSFQGLLVAVLYCFLNKEVQAELLRRWRRWQEGKALQEERMASSHGSHMAPAGTCHGDPCEKLQLMSAGSSSGTGCEPSAKTSLASSLPRLADSPT
binding result [8]: no binding (tested: 1 µM)
